B1: HDV Ribozyme (parent)
chain: GGCCGGCAUGGUCCCAGCCUCCUCGCUGGCGCCGGCUGGGCAACAUUCCGAGGGGACCGUCCCCUCGGUAAUGGCGAAUGGGACCCA

Variants of: B1
Experiment: self-cleavage, relative activity (ratio to wild type); higher = more cleavage; co-transcriptional

| Variant | self-cleavage |
| --- | --- |
| G25C U72G | 0.0639 |
| G25U C85G | 0.0755 |
| G25U C85A | 0.125 |
| G25A C86G | 0.122 |
| G25A C86A | 0.104 |
| C24G C63A | 0.18 |
| C24G C63U | 0.0875 |
| C26A C57U | 0.959 |
| C24U G39A | 0.257 |
| C24U G39U | 0.111 |
| C24U G39C | 0.0302 |
| G25A G68C | 0.253 |
| C26A A45U | 1.19 |
| C26A A45C | 0.554 |
| C26A A45G | 0.978 |
| C24A U79A | 0.227 |
| C24G C33U | 0.104 |
| C24G U47C | 0.0462 |
| C26G A70U | 0.875 |
| G25A C84A | 0.175 |
| C26G G31A | 0.744 |

| Variant | self-cleavage |
| --- | --- |
| G25C C75A | 0 |
| C26G C66A | 1.05 |
| G25C G34A | 0.143 |
| C26A G31A | 0.818 |
| C26A G31C | 0.453 |
| C26A G80A | 0.544 |
| C26A G80C | 0.348 |
| C26A G80U | 0.398 |
| G25A U72A | 0.158 |
| G25A G54C | 0.138 |
| C24U G68A | 0.831 |
| C24U G68U | 0.891 |
| C24U G68C | 0.456 |
| G25U C44A | 0.0852 |
| G25U C44U | 0.119 |
| G25U C48A | 0.332 |
| C24U G73U | 0.122 |
| C24U C64G | 0.779 |
| C26A C36U | 0.629 |
| G25U C61A | 0.287 |
| C24G C44G | 0.125 |

| Variant | self-cleavage |
| --- | --- |
| C26A A51G | 1.11 |
| C24U C49U | 0.758 |
| G25A G29C | 0.0583 |
| G25A G29U | 0.0941 |
| C24A G67C | 0.739 |
| G25U C58U | 0.217 |
| G25U C58G | 0.18 |
| G25U C62U | 0.0615 |
| G25A G50A | 0.406 |
| G25A G50U | 0.242 |
| C24A U72A | 0.271 |
| C26G C84U | 0.696 |
| C24G G54U | 0.183 |
| C24G G54A | 0 |
| C24G G54C | 0.0511 |
| G25C C30U | 0.0326 |
| G25C C30G | 0.0959 |
| C26G C61U | 1.06 |
| C26G C61G | 0.811 |
| C26G A78C | 0 |
| G25A G55C | 0.191 |

| Variant | self-cleavage |
| --- | --- |
| G25U G34U | 0.026 |
| G25A C48U | 0.264 |
| C24U U47C | 0.739 |
| G25U C66G | 0.0354 |
| C26A G59A | 1 |
| G25A G34A | 0.0863 |
| G25A G34C | 0.229 |
| C24G U27A | 0.0437 |
| C24U G80C | 0.179 |
| G25A A78G | 0.0339 |
| G25U A77C | 0.0504 |
| G25A G35A | 0.271 |
| C26A C30A | 0.491 |
| C24U C85U | 0.718 |
| C24U C85A | 0.831 |
| C24U C85G | 0.629 |
| C24U A70U | 0.598 |
| C24U U37C | 0.753 |
| C24U U37A | 0.18 |
| G25A G67C | 0.277 |

— the RNAGym collection of RNA variant scans (doi:10.7554/elife.80360)
